Test results from patent publication US8470576B2, “Group of novel enantioselective microbial nitrile hydratases with broad substrate specificity” (B.R.A.I.N. AG, priority 2006, dated 2013).

Assays:
Assay type in all cases: biochemical
[1] = Enantioselectivity of NHases towards rac-mandelonitrile (washed cells, chiral HPLC); conditions: for enantiopreference: (R/S)-mandelonitrile; for Eapp-value: kinetic resolution of (R/S)-mandelonitrile; for Eapp-value heterologously expressed / Eapp-value homologously expressed: rac-mandelonitrile; for Eapp-value heterologously expressed: heterologously expressed NHase; for Eapp-value homologously expressed: homologously expressed NHase
Procedure: For the determination of enantioselectivity towards rac-mandelonitrile and 2-phenylpropionitrile 40-50 mg of washed cells were resuspended in 1 ml of 50 mM Tris/HCl pH 7.5. 100 μl of cell suspension were mixed with 800 μl 50 mM Tris/HCl pH 7.5 and incubated at 30° C. in a thermomixer at 1000 rpm. The biotransformation was started by addition of 100 μl of 10 mM rac-mandelonitrile or rac-2-phenylpropionitrile in 50 mM Tris/HCl pH 7.5. The reaction was stopped by addition of 100 μl 1M HCl after 1, 5 or 10 min. Cells were removed by centrifugation and the supernatant analysed by chiral HPLC for the presence of mandeloamide and phenylpropionamide, respectively. rac-Mandeloamide was analysed on a HPLC comprising a Surveyor 4 channel Pump, AutoSampler and UVNIS detector at 210 nm from Thermo Finnigan on a Nucleodex β-OH column (Macherey & Nagel) using 50% methanol/water:water (40:60) as mobile phase at a flow rate of 0.7 ml/min. The apparent enantiomeric ratio (Eapp) of the conversion of mandelonitrile was calculated according to Straathof and Jongejan for […] (see example 9). In case of 2-phenylpropionamide, the samples were lyophilized and resuspended in n-hexane: 2-propanol (80:20). Prior to injection, the samples were additionally dried with sodium sulfate and were centrifugated at 16,000 g for 5 min. The supernatants were analyzed using a Chiracel OD column (Daicel) on a Spectra System (AS3000, P2000, UV2000 at 210 nm) from Thermo Separation Products with n-hexane: 2-propanol (80:20) as mobile phase at a flow rate of 0.5 ml/min. The enantiomeric ratio (E) of the conversion of PPN was calculated according to Chen et al. […]

[2] = Dependence of NHase activity on the temperature; conditions: for optimal temperature: 1 mM PPN
Procedure: As enzyme samples cell free crude extracts were used either of the heterologously or homologously produced enzyme. The substrate (1 mM 2-phenylpropionitrile (PPN) in 50 mM Tris/HCl pH 7.5)) was equilibrated at the indicated temperatures before the reaction was started by addition of 50 μl of enzyme sample. The activity was determined as described in example 4.
As enzyme samples lyophilized cells or a cell free crude extract were used. The samples were equilibrated for 5 min at the indicated temperatures before the reaction was started by addition of PPN to a final concentration of 1 mM. The activity was determined as described in example 4.
(§1) If not otherwise indicated enzyme samples were prepared as follows: the cells from 1 ml of the culture were washed with 50 mM Tris/HCl pH 7.5 and resuspended in 750 μl of the same buffer. This suspension was incubated at 30° C. in a thermomixer at 1000 rpm. The biotransformation was started by addition of the substrate 2-phenylpropionitrile (PPN) in 50 mM Tris/HCl pH 7.5. The concentration of the substrate was 1 mM, if not otherwise stated. The reaction was stopped after 1 min, 5 min or 10 min as indicated by addition of 1 M HCl. Cells were removed by centrifugation and the supernatant analysed by HPLC for the presence of the corresponding amide. The HPLC analysis was carried out on a system comprising a Surveyor 4 channel Pump, AutoSampler and UVNIS detector at 210 nm from Thermo Finnigan on a Grom-Sil 1200DS-3 cp 3 μm (125×4.6 mm) reverse phase column. As mobile phase, acetonitrile and 0.3% H3PO4 were used in a ratio of 50:50 at a flow of 0.7 ml/min, respectively.
The optimal temperatures for the NHases according to Seq ID No. 2 and 4 (Raoultella terrigena, 77.1) and Seq ID. No. 18 and 20 (Klebsiella oxytoca, 38.1.2) were determined to be at 45° C. (FIG. 23 and FIG. 24). At 55° C. a residual activity of about 20% was found for the enzyme according to Seq ID-No. 18 and 20 whereas at 60° C. no activity could be determined.

[3] = Activity of enzyme samples after heterologous expression of NHases in E. coli towards PPN; conditions: 1 mM PPN; stopped after 1 min; host E. coli BL21 (DE3) (a) or E. coli Rosetta (DE3) (b)
Procedure: The amplified α-subunits were ligated to pET22b whereas the β-subunits were ligated to pET26b by use of the unique NdeI and XhoI restriction enzyme recognition sites. E. coli BL21 (DE3) or E. coli Rosetta (DE3) was cotransformed with the vectors carrying the genes for the corresponding α- and β-subunits of the NHases. Freshly transformed cells were grown over night at 37° C. in 5 ml LB-medium containing 100 μg/ml ampicillin, 25 μg/ml kanamycin and 2% (w/v) glucose. In case of E. coli Rosetta (DE3) 12.5 μg/ml chloramphenicol was additionally used. 1 ml of this culture was used to inoculate 100 ml of LB-medium containing 100 μg/ml ampicillin, 25 μg/ml kanamycin and 1% (w/v) glucose. Cells were incubated at 20° C. or 30° C. on a gyratory shaker at 100 rpm. At an optical density O.D.595=1 cells were induced by addition of 100 μg/ml IPTG. Simultaneously, CoCl2*6H2O was added in a concentration of 250 μM. When the P16K activator protein from the strain Brevibacterium linens was coexpressed with the corresponding NHase E. coli Rosetta (DE3) pET22—32B1α pET26—32B.1β pBBR5—32B_P16K was grown in LB-medium containing 100 μg/ml ampicillin, 25 μg/ml kanamycin, 12.5 μg/ml chloramphenicol and 10 μg/ml gentamycin and 1% (w/v) glucose. Samples were taken 24 h after induction.
as §1

Row | Molecule | enantiopreference [1] | Eapp-value [1] | Eapp-value heterologously expressed [1] | Eapp-value homologously expressed [1] | optimal temperature [2] | residual activity at 60° C. [2] | vol. activity [3] | residual activity at 55° C. ([2]; 55° C.) | spec. activity [3]
1 | NHase Seq ID No. 2 and 4: nitrile hydratase of Raoultella terrigena strain 77.1, α-subunit SEQ ID NO 2, β-subunit SEQ ID NO 4 (protein, Raoultella terrigena, strain 77.1) alpha: MSHKHDHDHTEPPVDIELRVRALESLLQEKGLIDPAALDELIDTYEHKVGPRNGAQVVARAWSDPEYKRRLMENATAAISELGFSGIQGEDMLVVENTPDVHNVTVCTLCSCYPWPVLGLPPVWYKSAPYRSRIVIDPRGVLAEFGLHIPESKEIRVWDSSAELRYLVLPERPAGTDGWSEAQLSELISRDSMIGTGVVTAP beta: MNGIHDLGGMHGFGPIPTEENEPYFHHEWERRVFPMFASLFVGVHFNVDEFRHSIECMPPADYLQSSYYEHWLHAFETLLLAKGVITVDELWGGAKPTLCKPGTPVLTQDMVSMVVSTGGSARVSHDVAPRFRVGDRVRTKNFNPTTHTRLPRYARDKVGRIEIAHGVFITPDTAAHGLGEHPQHVYSVSFTAQELWGEPRPDNVFIDLWDDYLEEA | (S) | 20 | 20 | 19 | 45 °C | 60-79% | 4.9 μkat/L cultur |  | 
2 | NHase Seq ID No. 18 and 20: nitrile hydratase of Klebsiella oxytoca strain 38.1.2, α-subunit SEQ ID NO 18, β-subunit SEQ ID NO 20 (protein, Klebsiella oxytoca, strain 38.1.2) alpha: MSHKHDHDHTQPPVDIELRVRALESLLQEKGLIDPAALDELIDTYEHKVGPRNGAQVVARAWSDPEYKRRLMENATAAIAELGFSGIQGEDMLVVENTPDVHNVTVCTLCSCYPWPVLGLPPVWYKSAPYRSRIVIDPRGVLAEFGLHIPENKEIRVWDSSAELRYLVLPERPAGTEGWSEAQLSELITRDSMIGTGVVTAP beta: MNGIHDLGGMHGLGPIPTEENEPYFHHEWERRVFPLFASLFVGGHFNVDEFRHAIERMAPTEYLQSSYYEHWLHAFETLLLAKGVITVEELWGGAKPAPCKPGTPVLTQEMVSMVVSTGGSARVSHDVAPRFRVGDWVRTKNFNPTTHTRLPRYARDKVGRIEIAHGVFITPDTAAHGLGEHPQHVYSVSFTAQALWGEPRPDKVFIDLWDDYLEEA | (S) | 19 | 19 | 17 | 45 °C | no activity | 8.6 μkat/L cultur | about 20% | 9.6 μkat/g cdw
